How the values were obtained:
HLA-B*08:01/hβ2m (human) [1] = experiment: in vitro refolding + SEC
HLA-A*02:01/hβ2m (human) [2] = experiment: in vitro refolding + SEC
HLA-B*08:01/hβ2m (human) [3] = biological target: HLA-B*08:01/hβ2m (human)
HLA-A*02:01/hβ2m (human) [4] = biological target: HLA-A*02:01/hβ2m (human)
HLA-E*01:03/hβ2m (human) [5] = experiment: in vitro refolding + SEC
HLA-E*01:03/hβ2m (human) [6] = biological target: HLA-E*01:03/hβ2m (human)
HLA-E*01:03/hβ2m (human) [7] = biological target: HLA-E*01:03/hβ2m (human); remark: listed apart in the source

Substance | apparent refolding yield (%) (HLA-B*08:01/hβ2m (human) [1]) | apparent refolding yield (%) (HLA-A*02:01/hβ2m (human) [2]) | nanoDSF melting temperature (Tm) of the refolded peptide/HLA/hβ2m complex (HLA-B*08:01/hβ2m (human) [3]) [°C] | nanoDSF melting temperature (Tm) of the refolded peptide/HLA/hβ2m complex (HLA-A*02:01/hβ2m (human) [4]) [°C] | apparent refolding yield (%) (HLA-E*01:03/hβ2m (human) [5]) | nanoDSF melting temperature (Tm) of the refolded peptide/HLA/hβ2m complex (HLA-E*01:03/hβ2m (human) [6]) [°C] | nanoDSF melting temperature of a minor population of the refolded complex (HLA-E*01:03/hβ2m (human) [7]) [°C]
LSA3 78–87 (…) (peptide) | 14.7 | 13.5 | 56.3 | 52.5 |  |  | 
LSA3 1229–1238 (…) (peptide) | 47.6 | 24.6 | 60.5 | 58.4 | 38.1 | 61 | 
MSP1 511–520 (…) (peptide) | 44.4 | 19 |  | 51.6 |  |  | 
MSP1 643–652 (…) (peptide) | 32.6 |  | 52.9 |  | 8 | 38.4 | 63
MSP1 823–832 (…) (peptide) | 12.5 |  | 52.6 | 63.2 |  |  | 
MSP1 880–889 (…) (peptide) | 63.3 |  | 51.6 | 53.6 |  |  | 
SSFP 93–102 (…) (peptide) | 51.1 | 27.1 | 56.3 | 52.5 |  |  | 

From publication PMC11903679
